Measurements as given in patent publication US20160215045A1 (Eli Lilly, published 2016).

Assays:
human VEGFA165 [1] = molecular target: T1, human VEGFA165 (human, UniProt P15692 207-395); test: Biacore SPR at 25 C; antibody captured on Protein A, hVEGFA165 as analyte; 1:1 fit; off-rate too slow to quantitate accurately
T1 construct: Recombinant soluble protein; also called hVEGFA165; rhVEGFA
Procedure: (§1) Immobilization of soluble Protein A (Calbiochem #539202) on a CM4 (GE Healthcare #BR-1005-34) or CMS (GE Healthcare #BR-1000-99) is prepared using EDC/NHS amine coupling method (GE Healthcare #BR-1000-50). Briefly, the surfaces of all four flow cells is activated by injecting a 1:1 mixture of EDC/NHS for seven minutes at 10 μL/min After which, soluble protein A is diluted to 50-100 μg/mL in 10 mM acetate buffer, pH 4.5, and immobilized for seven minutes onto flow cell (Fc) 2, 3 or 4 at a flow rate of 10 μL/min. Unreacted sites still remaining on the chip surface are blocked with a seven minute injection of ethanolamine at 10 μL/min Running buffer is HBS-EP+ (GE Healthcare #BR-1006-69) with addition of 100 mM NaCl. Compound samples are prepared at 1 μg/mL by dilution into running buffer. […] Resultant data is processed using standard double-referencing and fit to a 1:1 binding model using Biacore 2000 Evaluation software, version 4.1, to determine the association rate (kₒₙ, M⁻¹s⁻¹ units), dissociation rate (koff, s⁻¹ units). Calculation of the equilibrium dissociation constant (KD) is calculated from the following relationship, KD=koff/kₒₙ, and is presented in molar units.

human VEGFA165 [2] = molecular target: T1, human VEGFA165; test: Biacore SPR at 25 C; antibody captured on Protein A, hVEGFA165 as analyte; 1:1 fit
Procedure: as §1

human VEGFA165 [3] = molecular target: T1, human VEGFA165; test: KinExA kinetic exclusion assay at 37 C, solution equilibrium with hVEGFA165
Text: (§2) A KinExA 3200 instrument is used to measure binding kinetics to human VEGFA165. Briefly, human VEGFA165 is covalently coupled to NHS-activated sepharose beads (GE Healthcare #17-0906-01) and the binding of free Mab to the conjugated beads is detected on the KinExA 3200. […] (depending on the temperature analyzed) in Casein Blocking Buffer (ThermoFisher #37528). […] It follows that the relative intensity of signal generated in these steps is proportional to the degree of free/uncomplexed compound present in each solution tested. The resultant composite set of fluorescent intensities is plotted as a function of the concentration of human VEGFA165 present in each discrete sample and fit using the N-curve analysis software (KinExA) to a standard two state binding model to determine KD for the given MOI. Statistical confidence is reported by calculation of the 95% confidence intervals.

human VEGFA165 [4] = molecular target: T1, human VEGFA165; test: Biacore SPR at 25 C; antibody captured on Protein A, hVEGFA165 as analyte; value called an upper limit
Procedure: as §1

human VEGFA165 [5] = molecular target: T1, human VEGFA165; test: KinExA kinetic exclusion assay at 25 C, solution equilibrium with hVEGFA165
Text: as §2

human VEGFA165 [6] = molecular target: T1, human VEGFA165; test: cell-based or functional assay

T1 sequence (P15692 other isoform, or with tags, fused parts or gaps): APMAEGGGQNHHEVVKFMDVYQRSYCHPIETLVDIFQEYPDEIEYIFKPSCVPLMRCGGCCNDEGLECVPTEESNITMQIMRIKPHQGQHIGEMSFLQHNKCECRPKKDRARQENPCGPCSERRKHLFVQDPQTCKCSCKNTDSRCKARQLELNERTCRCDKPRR

B1: parental anti-VEGFA antibody of Compound A (antibody, human IgG4 S228P, kappa, F234A L235A, V domains shown)
VH: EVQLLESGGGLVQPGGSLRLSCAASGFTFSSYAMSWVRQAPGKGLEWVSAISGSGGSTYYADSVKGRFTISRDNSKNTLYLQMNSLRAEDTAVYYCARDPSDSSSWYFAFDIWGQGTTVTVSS
VL: DIVMTQSPATLSVSPGQRATLSCRASQNIRNNLAWYQQKRGQAPRLLIYGASTRATGIPDRFSGSGSGADFTLTISKLEPEDFAVYYCQQYGSSPRTFGQGTKVDIKR
notes: also called Parental VEGFA Ab; parental VEGFA antibody
Human VEGFA165 [1]
  koff: 3.9e-05 s⁻¹
Human VEGFA165 [2]
  kon: 2.93e+06 M⁻¹ s⁻¹
Human VEGFA165 [3]
  Kd: 183 pM
Human VEGFA165 [4]
  Kd: ≤ 13.2 pM
Human VEGFA165 [5]
  Kd: 27 pM
Human VEGFA165 [6]
  IC50 for inhibition of VEGFA165 induced proliferation of ECFC (3H thymidine): 1380 pM
  IC50 for inhibition of VEGFA induced cord formation in ADSC/ECFC co-culture (total tube area): 1570 pM
